This note sets out measurements from article PMC12152161 (2025).

The target of the assay is T1, His10 − MBP − KIF1C(714–809) (UniProt O43896 714-809).
T1 chain: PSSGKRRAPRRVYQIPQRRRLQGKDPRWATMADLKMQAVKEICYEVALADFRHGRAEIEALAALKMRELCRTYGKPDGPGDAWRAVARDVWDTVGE
The assay can be described thus: ITC. In general terms: ITC needs no label: the signal is the heat of the interaction.

B1: His10 − MBP − PTPN21(19–308) (domain or fragment)
chain: SKSCLVARIQLLNNEFVEFTLSVESTGQESLEAVAQRLELREVTYFSLWYYNKQNQRRWVDLEKPLKKQLDKYALEPTVYFGVVFYVPSVSQLQQEITRYQYYLQLKKDILEGSIPCTLEQAIQLAGLAVQADFGDFDQYESQDFLQKFALFPVGWLQDEKVLEEATQKVALLHQKYRGLTAPDAEMLYMQEVERMDGYGEESYPAKDSQGSDISIGACLEGIFVKHKNGRHPVVFRWHDIANMSHNKSFFALELANKEETIQFQTEDMETAKYIWRLCVARHKFYRLNQ
Consider B1, for which the Ka is 194000 M⁻¹.

B2: His10 − MBP−Hook3(553–624) (domain or fragment)
chain: EKLHEANNELQKKRAIIEDLEPRFNNSSLKIEELQEALRKKEEEMKQMEERYKKYLEKAKSVIRTLDPKQNQ
The molecule B2 showed a Ka of 631000 M⁻¹.
